Data reported in publication PMC10943695, “Neutrophil elastase as a versatile cleavage enzyme for activation of αvβ3 integrin-targeted small molecule drug conjugates with different payload classes in the tumor microenvironment” (Frontiers in Pharmacology, 2024).
Entries after “also recorded” stand apart in the source; their conditions may differ. Read-outs that look alike come from different tables or passages of the source.

How the values were obtained:
[1] = test system: 786-O (human RCC) cells; assay: In vitro cytotoxicity, MTT assay, in absence or presence of neutrophil elastase; format: cell-based; settings: 72 h exposure
Description: (§1) 786-O (human RCC), HT-29 (human CRC), NCI-H292 (human NSCLC), NCI-H69 (human SCLC), MX-1 (human TNBC), and SUM149PT (human IBC) cells were acquired from ATCC and cultured according to the provider’s instructions.
(§2) The in vitro cytotoxicity of the SMDCs in comparison to the respective payloads was tested in a panel of cancer cell lines after a 72 h continuous exposure in presence or absence of 20 nM neutrophil elastase using MTT assays (ATCC). IC50 values were determined as the concentration of compound required for 50% inhibition of cell viability.

[2] = test system: HT-29 (human CRC) cells; assay: as above; format: cell-based; settings: 72 h exposure
Description: as §1, §2

[3] = test system: NCI-H292 (human NSCLC) cells; assay: as above; format: cell-based; settings: 72 h exposure
Description: as §1, §2

[4] = test system: SUM149PT (human IBC) cells; assay: as above; format: cell-based; settings: 72 h exposure
Description: as §1, §2

[5] = Hydrolytic stability in PBS buffer at pH 7.4; format: physicochemical; settings: PBS pH 7.4, 37 °C, 24 h
Description: For hydrolytic stability measurement, compounds 2, 3, 4, 5 and 6 (0.15 mg) were dissolved in acetonitrile/DMSO (4:1, 0.5 mL) and 1 mL of PBS buffer at pH 7.4 was then added. The sample solution was analyzed by HPLC to determine the amount of the test compound and the formation of degradation products over a period of 24 h at 37 °C.

[6] = Stability in rat plasma; format: in vitro ADME; settings: 37 °C
Description: The SMDC compounds 2, 3, 4, 5 and 6 (1 mg) were dissolved in acetonitrile/DMSO (1:1, 0.5 mL). While vortexing, 20 µL of this solution was added to 1 mL rat plasma at 37 °C. The incubation was stopped at respective time intervals by adding acetonitrile/buffer pH 3 (80:20) and the test compounds and formation of degradation products were analyzed by LC and LC/MS.

[7] = Stability in human plasma; format: in vitro ADME; settings: 37 °C
[8] = Intravenous pharmacokinetics in rat; format: in vivo; settings: male Wistar rats, 0.5 mg/kg SMDC i.v., plasma; for AUC(0-inf) / half-life / clearance / Vd: rat, iv; for clearance: read-out: CLp; for Vd: read-out: Vss
Description: Pharmacokinetic properties of SMDCs and their respective payloads were characterized in rats. Briefly, male Wistar rats (n = 3) were given a 0.5 mg/kg dose of SMDC formulated in plasma/DMSO (99:1) intravenously (i.v.) via tail vein. Blood was collected at pre-dose, 2, 5, 15, 30, 45, 60 min, 2, 4, 7, 24 h post-dose and then processed to plasma. Plasma was frozen at < −20°C until sample analysis. Plasma samples were analyzed for concentrations of SMDCs and their respective released payloads by LC-MS/MS.
Pharmacokinetics of SMDCs and their respective payloads from in vivo studies were determined using mean concentration-time profiles. All pharmacokinetic parameters were calculated by non-compartmental methods as previously described ([Perrier and Gibaldi, 1982]).

[9] = test system: NCI H69 SCLC xenograft; assay: In vivo efficacy in NCI H69 SCLC xenograft model; parameters: species or system mice; settings: NCI H69 model, QWx2 (4: 5 mg/kg; 6: 40 mg/kg)
Description: For the NCI H69 study, immunocompromised mice were inoculated subcutaneously with 1.3 × 10^6 NCI H69 cells in 50% Matrigel/50% Media on day 0. Treatment was started at a mean tumor area in the range of […] in the NCI H69 model (n = 8/group, compound 4 at 5 mg/kg i. v., QW, and compound 6 at 40 mg/kg i. v., QW). In an independent experiment in the same CDX xenograft model compound 3 was tested at 10 mg/kg i. v., QW.

[10] = with 20 nM neutrophil elastase, read-out: IC50 786–0 + neutrophil elastase
[11] = with 20 nM neutrophil elastase, read-out: IC50 HT29 + neutrophil elastase
[12] = with 20 nM neutrophil elastase, read-out: IC50 NCI-H292 + neutrophil elastase
[13] = with 20 nM neutrophil elastase, read-out: IC50 SUM149 PT + neutrophil elastase

Compound	IC50 [1, 10] [nM]	IC50 [2, 11] [nM]	IC50 [3, 12] [nM]	IC50 [4, 13] [nM]	Stability in buffer pH 7.4 [5]	Stability in rat plasma [6]	Stability in human plasma [7]	Vss [8]	AUC(0-inf) [8] [µM·h]	half-life [8] [h]	clearance [8] [L/h/kg]	Vd [8] [L/kg]	Body weight changes [9]	IC50 ([1]; without neutrophil elastase, read-out: IC50 786–0) [nM]	IC50 ([2]; without neutrophil elastase, read-out: IC50 HT29) [nM]	IC50 ([3]; without neutrophil elastase, read-out: IC50 NCI-H292) [nM]	IC50 ([4]; without neutrophil elastase, read-out: IC50 SUM149PT) [nM]
CCCNC(=O)Nc1cccc(S(=O)(=O)Nc2cccc([C@@H](CC(=O)O)NC(=O)Nc3ccc(NC(=O)NCCOCCOCCOCCC(=O)N[C@@H](CC(=O)O)C(=O)N4CCC[C@H]4C(=O)N[C@H](C(=O)N[C@@H](CCN(C(=O)CO)[C@@H](c4cc(-c5cc(F)ccc5F)cn4Cc4ccccc4)C(C)(C)C)C(=O)NC)C(C)C)cc3)c2)c1 [Compound 6]	8.7	1.7	1.3	0.6	Very small fractions of a degradation product; also recorded: highly stable	highly stable	highly stable	comparable to plasma volume	2.98 ± 0.25	0.442 ± 0.023	0.101 ± 0.009	0.0377 ± 0.005	very minor	–	–	–	–
CCCNC(=O)Nc1cccc(S(=O)(=O)Nc2cccc([C@@H](CC(=O)O)NC(=O)Nc3ccc(NC(=O)NCCOCCOCCOCCC(=O)N[C@@H](CC(=O)O)C(=O)N4CCC[C@H]4C(=O)N[C@H](C(=O)O[C@@H](c4ccccc4)[C@@H](C)NC(=O)[C@H](C)[C@@H](OC)[C@@H]4CCCN4C(=O)C[C@@H](OC)[C@H]([C@@H](C)CC)N(C)C(=O)[C@@H](NC(=O)[C@@H](NC)C(C)C)C(C)C)C(C)C)cc3)c2)c1 [Compound 4]	6.6	0.43	0.35	0.51	highly stable	highly stable	highly stable	–	3.03 ± 0.11	2.3 ± 0.95	0.0882 ± 0.0036	0.157 ± 0.015	very minor	660	78	71	50
